Experiment [1] concerns the target Trypanosoma brucei gambiense variant surface glycoprotein LiTat 1.3 (Lille Trypanozoon antigen type 1.3) (Trypanosoma brucei gambiense). The experiment in a line: SEC-MALS; Agilent Bio SEC-3 column, PBS; samples at 0.5 mg/mL and 5 mg/mL, 50 uL injected.
Experiment [2] has the same target. The experiment is described as follows: SAXS; SEC-SAXS, Shodex KW404-4F column, 20 mM HEPES, 150 mM NaCl, 3% glycerol, pH 7.4; 50 uL at 15.51 mg/mL injected; curve from the first (major) elution peak.

Take “Trypanosoma brucei gambiense variant surface glycoprotein LiTat 1.3 (Lille Trypanozoon antigen type 1.3) (natural protein)”: the stoichiometry N in experiment [1] and in experiment [2] was 3 throughout.

The values above are taken from publication PMC13480635.
